The results in this text go back to PMC10750099, “Mapping immunological and host receptor binding determinants of SARS-CoV spike protein utilizing the Qubevirus platform” (The Journal of Biological Chemistry, 2023).

The target of this test is T1, recombinant human angiotensin-converting enzyme 2 (human, UniProt Q9BYF1 18-740).
T1 construct: also called rhACE2; hACE2
Briefly: ELISA. Particulars: both partners purified. On the technique in general: ELISA stands for enzyme-linked immunosorbent assay.

T1 sequence (Q9BYF1 18-740): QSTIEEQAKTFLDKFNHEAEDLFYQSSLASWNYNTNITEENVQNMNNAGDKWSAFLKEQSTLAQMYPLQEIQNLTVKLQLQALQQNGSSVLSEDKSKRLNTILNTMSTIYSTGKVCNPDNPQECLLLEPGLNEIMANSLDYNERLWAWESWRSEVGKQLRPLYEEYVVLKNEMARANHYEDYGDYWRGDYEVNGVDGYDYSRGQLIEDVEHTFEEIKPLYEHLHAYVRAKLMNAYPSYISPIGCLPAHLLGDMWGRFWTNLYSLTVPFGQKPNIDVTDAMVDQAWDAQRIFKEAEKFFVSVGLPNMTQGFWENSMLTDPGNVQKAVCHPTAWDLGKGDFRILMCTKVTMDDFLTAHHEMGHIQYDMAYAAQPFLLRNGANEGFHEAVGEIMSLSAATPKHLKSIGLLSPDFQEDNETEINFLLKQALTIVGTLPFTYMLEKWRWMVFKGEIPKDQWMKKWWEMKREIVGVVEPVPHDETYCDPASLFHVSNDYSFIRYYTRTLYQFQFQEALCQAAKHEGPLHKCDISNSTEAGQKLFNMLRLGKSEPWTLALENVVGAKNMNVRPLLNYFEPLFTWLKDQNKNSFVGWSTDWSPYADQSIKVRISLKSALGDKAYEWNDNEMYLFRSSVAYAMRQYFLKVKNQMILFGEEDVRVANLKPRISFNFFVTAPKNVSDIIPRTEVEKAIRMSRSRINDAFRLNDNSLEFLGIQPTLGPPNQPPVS

B1: recombinant Qβ phage displaying the rhACE2-binding motif S437-492 of SARS-CoV spike fragment F6 on A1 (domain or fragment)
chain: NYKYRYLRHGKLRPFERDISNVPFSPDGKPCTPPALNCYWPLNDYGFYTTTGIGYQ
notes: also called GF6 motif (S437-492)
As to B1, the binding result was “binds”.
